Source: PMC11195156 (bioRxiv, 2025)

T1: Escherichia coli sulfite reductase hemoprotein (Escherichia coli K-12, UniProt P17846 1-570)
T1 sequence: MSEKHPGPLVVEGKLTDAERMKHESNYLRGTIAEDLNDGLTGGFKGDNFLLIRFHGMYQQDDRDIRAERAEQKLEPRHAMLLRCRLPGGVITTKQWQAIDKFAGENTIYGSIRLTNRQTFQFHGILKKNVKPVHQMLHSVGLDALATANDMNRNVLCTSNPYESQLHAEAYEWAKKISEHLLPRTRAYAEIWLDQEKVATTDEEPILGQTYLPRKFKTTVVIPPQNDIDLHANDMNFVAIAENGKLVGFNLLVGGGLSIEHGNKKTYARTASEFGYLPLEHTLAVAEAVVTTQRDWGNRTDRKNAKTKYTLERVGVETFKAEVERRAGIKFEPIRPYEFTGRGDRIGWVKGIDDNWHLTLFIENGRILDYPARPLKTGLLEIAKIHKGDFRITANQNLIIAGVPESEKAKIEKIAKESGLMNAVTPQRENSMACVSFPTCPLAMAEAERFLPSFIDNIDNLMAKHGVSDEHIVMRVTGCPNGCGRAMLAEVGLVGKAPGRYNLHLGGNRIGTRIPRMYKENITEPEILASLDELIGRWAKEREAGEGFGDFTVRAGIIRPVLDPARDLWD

B1: SiRFP-43: sulfite reductase flavoprotein amino acids 237-599 (domain or fragment, Escherichia coli K-12, UniProt P38038 237-599, looked up)
chain: LVASLSVNQKITGRNSEKDVRHIEIDLGDSGMRYQPGDALGVWYQNDPALVKELVELLWLKGDEPVTVEGKTLPLNEALQWHFELTVNTANIVENYATLTRSETLLPLVGDKAKLQHYAATTPIVDMVRFSPAQLDAEALINLLRPLTPRLYSIASSQAEVENEVHVTVGVVRYDVEGRARAGGASSFLADRVEEEGEVRVFIEHNDNFRLPANPETPVIMIGPGTGIAPFRAFMQQRAADEAPGKNWLFFGNPHFTEDFLYQVEWQRYVKDGVLTRIDLAWSRDQKEKVYVQDKLREQGAELWRWINDGAHIYVCGDANRMAKDVEQALLEVIAEFGGMDTEAADEFLSELRVERRYQRDVY
B2: SiRFP-60X: sulfite reductase flavoprotein amino acids 52-599 (C162T/C552S/E121C/N556C) (domain or fragment, Escherichia coli K-12, UniProt P38038 52-599, looked up)
chain: AATPAPAAEMPGITIISASQTGNARRVAEALRDDLLAAKLNVKLVNAGDYKFKQIASEKLLIVVTSTQGCGEPPEEAVALHKFLFSKKAPKLENTAFAVFSLGDSSYEFFTQSGKDFDSKLAELGGERLLDRVDADVEYQAAASEWRARVVDALKSRAPVAAPSQSVATGAVNEIHTSPYSKDAPLVASLSVNQKITGRNSEKDVRHIEIDLGDSGMRYQPGDALGVWYQNDPALVKELVELLWLKGDEPVTVEGKTLPLNEALQWHFELTVNTANIVENYATLTRSETLLPLVGDKAKLQHYAATTPIVDMVRFSPAQLDAEALINLLRPLTPRLYSIASSQAEVENEVHVTVGVVRYDVEGRARAGGASSFLADRVEEEGEVRVFIEHNDNFRLPANPETPVIMIGPGTGIAPFRAFMQQRAADEAPGKNWLFFGNPHFTEDFLYQVEWQRYVKDGVLTRIDLAWSRDQKEKVYVQDKLREQGAELWRWINDGAHIYVSGDACRMAKDVEQALLEVIAEFGGMDTEAADEFLSELRVERRYQRDVY
B3: SiRFP-60Δ: sulfite reductase flavoprotein amino acids 52-599/Δ212-217 (Δ-AAPSQS) (domain or fragment, Escherichia coli K-12, UniProt P38038 52-599, looked up)
chain: AATPAPAAEMPGITIISASQTGNARRVAEALRDDLLAAKLNVKLVNAGDYKFKQIASEKLLIVVTSTQGEGEPPEEAVALHKFLFSKKAPKLENTAFAVFSLGDSSYEFFCQSGKDFDSKLAELGGERLLDRVDADVEYQAAASEWRARVVDALKSRAPVVATGAVNEIHTSPYSKDAPLVASLSVNQKITGRNSEKDVRHIEIDLGDSGMRYQPGDALGVWYQNDPALVKELVELLWLKGDEPVTVEGKTLPLNEALQWHFELTVNTANIVENYATLTRSETLLPLVGDKAKLQHYAATTPIVDMVRFSPAQLDAEALINLLRPLTPRLYSIASSQAEVENEVHVTVGVVRYDVEGRARAGGASSFLADRVEEEGEVRVFIEHNDNFRLPANPETPVIMIGPGTGIAPFRAFMQQRAADEAPGKNWLFFGNPHFTEDFLYQVEWQRYVKDGVLTRIDLAWSRDQKEKVYVQDKLREQGAELWRWINDGAHIYVCGDANRMAKDVEQALLEVIAEFGGMDTEAADEFLSELRVERRYQRDVY

The binders below were run against T1, Escherichia coli sulfite reductase … (assay: cryo-EM structure).

binding result	Binder
binds	B1
binds	B2
binds	B3
